The values below come from paper PMC2761005, “Three-Dimensional Structure of N-Terminal Domain of DnaB Helicase and Helicase-Primase Interactions in Helicobacter pylori” (PLoS ONE, 2009).

A word on the stoichiometry N: it is the number of molecules, sites or subunits per partner or assembly. What is called Kd is the constant that tells how readily two partners part at equilibrium.

Data set [1] deals with the molecule itself. Put plainly: SEC; Hi Load superdex-75 16/60 column, 20 mM Tris.Cl pH 7.5, 100 mM NaCl, 1 mM EDTA, 5 mM βME; mass deduced from a plot of gel filtration standards.
Data set [2] has as its target C-terminal domain (CTD) of H. pylori DnaG primase (H. pylori) (UniProt P56064). Kind of data set: SPR; Biacore 2000, 25°C; 750 RU of CTD of HpDnaG amine-coupled on a CM4 chip; helicase samples (10 µM) injected at 20 µl/min in 10 mM Hepes pH 7.4, 150 mM NaCl, 3 mM EDTA, 0.005% P20.

C-terminal domain (CTD) of H. pylori DnaG primase (H. pylori), sequence (P56064 whole entry, the tested form may be a part): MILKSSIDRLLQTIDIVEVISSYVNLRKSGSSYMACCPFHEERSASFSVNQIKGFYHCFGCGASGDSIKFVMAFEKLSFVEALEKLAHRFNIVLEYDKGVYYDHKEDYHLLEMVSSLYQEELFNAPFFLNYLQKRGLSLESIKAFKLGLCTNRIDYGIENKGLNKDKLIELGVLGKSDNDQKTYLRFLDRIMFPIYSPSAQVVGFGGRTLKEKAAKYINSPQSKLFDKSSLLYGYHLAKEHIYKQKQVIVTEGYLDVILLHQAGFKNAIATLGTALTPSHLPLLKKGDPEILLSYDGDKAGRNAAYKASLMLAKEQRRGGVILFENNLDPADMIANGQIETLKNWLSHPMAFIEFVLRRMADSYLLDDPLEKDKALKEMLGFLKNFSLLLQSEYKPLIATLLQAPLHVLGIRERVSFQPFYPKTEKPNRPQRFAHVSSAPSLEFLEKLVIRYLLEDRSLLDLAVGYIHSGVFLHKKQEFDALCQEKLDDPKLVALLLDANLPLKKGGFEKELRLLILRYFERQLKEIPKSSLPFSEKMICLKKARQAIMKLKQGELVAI

B1: N-terminal domain (NTD) of H. pylori DnaB helicase (residues 1-121) (domain or fragment, UniProt O25916 1-121, looked up)
chain: MDHLKHLQQLQNIERIVLSGIVLANHKIEEVHSVLEPSDFYYPPNGLFFEIALKLHEEDCPIDENFIRQKMPKDKQIKEEDLVAIFAASPIDNIEAYVEEIKNASIKRKLFGLANTIREQA
notes: Cloned NcoI/XhoI into pET 28a; also called NTD of HpDnaB; source: E. coli BL21 (DE3), purified (Ni-NTA, Superdex-75 gel filtration); not shown: His6, C-terminal, kept
For B1, the “stoichiometry N” value in data set [1] was found to be 2.

B2: N-terminal domain with longer linker (NTDL) of H. pylori DnaB helicase (residues 1-144) (domain or fragment)
chain: MDHLKHLQQLQNIERIVLSGIVLANHKIEEVHSVLEPSDFYYPPNGLFFEIALKLHEEDCPIDENFIRQKMPKDKQIKEEDLVAIFAASPIDNIEAYVEEIKNASIKRKLFGLANTIREQALESAQKSSDILGAVEREVYALLN
In the case of B2, the Kd in data set [2] stood at 110 nM.

B3: H. pylori DnaB helicase, full length (enzyme)
chain: MDHLKHLQQLQNIERIVLSGIVLANHKIEEVHSVLEPSDFYYPPNGLFFEIALKLHEEDCPIDENFIRQKMPKDKQIKEEDLVAIFAASPIDNIEAYVEEIKNASIKRKLFGLANTIREQALESAQKSSDILGAVEREVYALLNGSTIEGFRNIKEVLESAMDLITENQRKGSLEVTGIPTGFVQLDNYTSGFNKGSLVIIGARPSMGKTSLMMNMVLSALNDDRGVAVFSLEMSAEQLALRALSDLTSINMHDLESGRLDDDQWENLAKCFDHLSQKKLFFYDKSYVRIEQIRLQLRKLKSQHKELGIAFIDYLQLMSGSKATKERHEQIAEISRELKTLARELEIPIIALVQLNRSLENRDDKRPILSDIKDSGGIEQDADIVLFLYRGYIYQMRAEDNKIDKLKKEGKIEEAQELYLKVNEERRIHKQNGSIEEAEIIVAKNRNGATGTVYTRFNAPFTRYEDMPIDSHLEEGQETKVDYDIVTT
For B3, in data set [2], the Kd came to 2250 nM.
